The target in assay [1] is bMERB domain (Rab binding domain) of Mical-cL, residues 534-683 (human) (UniProt O94851). Nature of the assay: ITC; iTC200, 25°C; 400 µM Rab titrated into 20–40 µM bMERB domain in the cell; 20 mM Hepes pH 7.5, 50 mM NaCl, 2 mM MgCl2, 1 mM TCEP.
In a further assay the target is Slac2-a/melanophilin (UniProt Q91V27). The following applies: cited from earlier work.
Another assay deals with Slp2-a (UniProt Q99N50). The following applies: cited from earlier work.
Slp2-a, sequence (Q99N50 whole entry): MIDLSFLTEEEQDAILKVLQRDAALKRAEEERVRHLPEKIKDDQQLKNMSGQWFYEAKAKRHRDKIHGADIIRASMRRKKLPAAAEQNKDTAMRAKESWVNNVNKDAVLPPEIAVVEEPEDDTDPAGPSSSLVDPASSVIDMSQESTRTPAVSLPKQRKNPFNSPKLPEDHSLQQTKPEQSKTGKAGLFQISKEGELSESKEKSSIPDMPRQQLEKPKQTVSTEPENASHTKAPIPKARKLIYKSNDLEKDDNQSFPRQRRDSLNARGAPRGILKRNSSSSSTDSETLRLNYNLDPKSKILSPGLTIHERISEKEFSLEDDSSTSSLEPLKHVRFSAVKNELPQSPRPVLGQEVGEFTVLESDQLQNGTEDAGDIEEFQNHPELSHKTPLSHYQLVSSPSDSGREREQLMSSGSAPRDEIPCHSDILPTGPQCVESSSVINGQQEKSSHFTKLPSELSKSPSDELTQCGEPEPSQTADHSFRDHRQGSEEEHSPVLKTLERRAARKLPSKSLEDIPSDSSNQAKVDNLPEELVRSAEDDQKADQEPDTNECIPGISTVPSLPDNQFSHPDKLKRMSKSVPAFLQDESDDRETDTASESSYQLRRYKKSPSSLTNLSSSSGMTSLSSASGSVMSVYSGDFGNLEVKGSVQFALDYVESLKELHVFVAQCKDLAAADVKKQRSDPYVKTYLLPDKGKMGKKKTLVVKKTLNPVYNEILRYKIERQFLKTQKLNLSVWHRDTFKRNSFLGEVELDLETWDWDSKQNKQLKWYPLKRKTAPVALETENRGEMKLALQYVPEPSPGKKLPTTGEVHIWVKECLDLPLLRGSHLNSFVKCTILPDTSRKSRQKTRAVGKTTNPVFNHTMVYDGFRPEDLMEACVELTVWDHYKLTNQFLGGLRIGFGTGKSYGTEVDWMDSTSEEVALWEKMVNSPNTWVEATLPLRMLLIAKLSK

Rab27, sequence (Q9ERI2 2-221): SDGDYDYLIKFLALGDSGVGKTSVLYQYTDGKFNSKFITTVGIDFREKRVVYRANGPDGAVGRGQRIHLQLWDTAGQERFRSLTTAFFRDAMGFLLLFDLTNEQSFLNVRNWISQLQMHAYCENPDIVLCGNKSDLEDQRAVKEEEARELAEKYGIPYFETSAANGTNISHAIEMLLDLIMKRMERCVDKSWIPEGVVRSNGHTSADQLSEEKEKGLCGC
Slac2-a/melanophilin, sequence (Q91V27 whole entry): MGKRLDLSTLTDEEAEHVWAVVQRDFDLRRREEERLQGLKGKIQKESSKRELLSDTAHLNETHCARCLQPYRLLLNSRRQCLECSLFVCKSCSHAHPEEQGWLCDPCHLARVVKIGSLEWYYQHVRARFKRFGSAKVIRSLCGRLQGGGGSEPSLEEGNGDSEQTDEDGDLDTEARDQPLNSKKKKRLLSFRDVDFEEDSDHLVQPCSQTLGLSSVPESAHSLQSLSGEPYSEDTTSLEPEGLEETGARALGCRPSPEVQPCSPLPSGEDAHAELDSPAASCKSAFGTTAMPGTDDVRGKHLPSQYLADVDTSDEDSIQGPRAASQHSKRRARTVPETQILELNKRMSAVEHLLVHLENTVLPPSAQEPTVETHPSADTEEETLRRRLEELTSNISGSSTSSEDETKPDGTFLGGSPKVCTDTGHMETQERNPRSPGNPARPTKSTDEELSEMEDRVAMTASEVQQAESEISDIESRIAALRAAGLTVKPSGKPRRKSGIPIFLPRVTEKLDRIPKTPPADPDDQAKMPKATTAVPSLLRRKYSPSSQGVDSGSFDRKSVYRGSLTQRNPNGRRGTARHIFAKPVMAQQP
bMERB domain (Rab binding domain) of Mical-cL, residues 534-683 (human), sequence (O94851 1796-1945): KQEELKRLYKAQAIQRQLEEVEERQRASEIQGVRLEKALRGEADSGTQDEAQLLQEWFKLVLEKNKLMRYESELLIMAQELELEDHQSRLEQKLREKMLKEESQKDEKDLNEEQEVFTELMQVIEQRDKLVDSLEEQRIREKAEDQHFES

As to “Rab1R8N, chimera of Rab1b with the 4 N-terminal residues of Rab8 (from UniProt Q9H0U4 5-201) (natural protein)”, the Kd in assay [1] turned out to be 1100 nM. Consider Rab27 (from UniProt Q9ERI2), for which the figures for the Kd with Slac2-a/melanophilin and in the assay with Slp2-a were 112 nM and 13.4 nM, respectively.

The values above are taken from publication PMC5026484.
